The DeepSol protein solubility set

Experiment: soluble on expression in E. coli; label from the status in PepcDB or PDB records

| Sequence | soluble on expression in E. coli |
| --- | --- |
| MRYKKTLMLSIMITSFNSFAFNDNYSSTSTVYATSNEATDSRGSEHLRYPYLECIKIGMSRDYLENCVKVSFPTSQDMFYDAYPSTESDGAKTRTKEDFSARLLAGDYDSLQKLYIDFYLAQTTFDWEIPTRDQIETLVNYANEGKLSTALNQEYITGRFLTKENGRYDIVNVGGVPDNTPVKLPAIVSKRGLMGTTSVVNAIPNEIYPHIKVYEGTLSRLKPGGAMIAVLEYDVSELSKHGYTNLWDVQFKVLVGVPHAETGVIYDPVYEETVKPYQPSGNLTGKKLYNVSTNDMHNGYKWSNTMFSNSNYKTQILLTKGDGSGVKLYSKAYSENFK | not soluble |
| MVIILAMTNREKFKVLADQIKISNQLEQDILEQGELTRIDVSNKNRTWTFQISLPHFLSHEDYLLFTHAIEEEFKEIATVAIDFSIKDTNNQDEFALKYFGHCIDQTRLSPKVKGQLKQKKLIMSGNVLKVLVSNDIERNHFDKACNGSLVKA | not soluble |
| MSVDEKPIKIKVEKVSKIFGKQTKKAVQMLANGKAKKEILKATGSTVGVNQADFEVYDGEIFVIMGLSGSGKSTLVRMLNRLIEPTAGNIYIDGDMITNMSKDQLREVRRKKISMVFQKFALFPHRTILENTEYGLELQGVDKQERQQKALESLKLVGLEGFEHQYPDQLSGGMQQRVGLARALTNDPDILLMDEAFSALDPLIRKDMQDELLDLHDNVGKTIIFITHDLDEALRIGDRIVLMKDGNIVQIGTPEEILMNPSNEYVEKFVEDVDLSKVLTAGHIMKRAETVRIDKGPRVALTLMKNLGISSIYAVDKQKKLLGVIYASDAKKAAESDLSLQDILNTEFTTVPENTYLTEIFDVVSDANIPIAVVDEKQRMKGIVVRGALIGALAGNNEYINAEGT | not soluble |
| MNNSSNADSQEGSTSAQKQKTANPSESRPFVLKKWNALAVWAWDVECDTCAICRVHLMEECLRCQSEPSAECYVVWGDCNHSFHHCCMTQWIRQNNRCPLCQKDWVVSRTSK | not soluble |
| MAYSEKVIDHYENPRNVGKLDAADPNVGTGMVGAPACGDVMRLQIKVNEQGVIEDAKFKTYGCGSAIASSSLATEWMKGKTLDEAETIKNTTIAEELALPPVKIHCSVLAEDAIKAAVRDYKQKKGLL | not soluble |
| MAHHHHHHMATARSYFYYLDAHGNLFPVTDIKGLIDGTNIPAGPIQLRDRAFLDFFYLRLKRSDVEDAAACSNVSDRREEGELLLHSGAKLTPQEVVQHFPYVSICGPERNFLKAEEAPLVFVNYTSGHPKCKQQNGTLAFGESLWEDFQPQALVVTREGKLFHPITKLKNLIATQNGAGDAVPRGLVEAQVVKKLGLELVCDSAKSGYYVLEWKGQKQRIPYFDEL | not soluble |
| MSLDIHEGNLMPAKRKLTMRHIRQMLRLAGSGTSSREIAVMLGIARSTVQDNLKRAAMAGLSWALASGLTDDVLEAKLFVHPGVKRGQRLRQEPDWGPLSIELKKPGVTLLILWEEYRSAHPDGYGYSRFCELFRGFEKRLSPTMRQEHIAGDKVFVDYSGKKVPIVDRKTGEIREAELFLGVLGASSYCTRGRSVHLGELLRRAWIFQHLGNREGHHHHHH | soluble |
| MGSDKIHHHHHHMKEYRIRPREANLSFLEDLDEEQRRAVVESEGRCIVIAGPGSGKTRVITYKIAYLLANGVDPSRILLVTFTRAAAREMVERAKAVTGRELSEMLAGTFHHVCNHFLRKYAPYVGLERNYSILDREDAESLMRHARSKYLERKSKEERKNFPQPSVLMAIYSYMKNTLKSLRESIVVKNPKFLDLKEEISEIFDLYEQEKRSQNVVDYEDLLFYAYRLFEENKEIRDREAERFLWILVDEFQDTNYVQYKIVEHLSSKHGNILAVGDDAQSIYSFRGARYENVEDFIRVPGTKIFKIQTNYRSTESIVKFINAMLPRKSVPKELKPVKKDGMKPVVVKTWDRYEEARFVSQRILELIEEGFKPEEIAVLYRSHSHSLELQMELVRSRIDFRVLSGPRFTESAHVKDVLSFLRIVQNPRDKSAWLRAAKLFYGIGDRTASKIADLASAYVEEGLDPFQELKKVSFSGEYSRFIDILDQIRKLDSPGEMIERVLSSFYSEYLEARYPDFREREMDLERLVEIASRYTSLESFLTDLAVTENVEIEREISQKEGKVTLTTVHQAKGLEWRVVFVISVNPGDFPNYFAISEGNLDEEERIFYVAITRAKEQLYISYQVTGTSYPYRGNRFIMRSGENFIDRIPLELVEFWEVK | not soluble |
| MSDRATTTASLTFESLYGTHHGWLKSWLTRKLQSAFDADDIAQDTFLRVMVSETLSTIRDPRSFLCTIAKRVMVDLFRRNALEKAYLEMLALMPEGGAPSPEERESQLETLQLLDSMLDGLNGKTREAFLLSQLDGLTYSEIAHKLGVSISSVKKYVAKAVEHCLLFRLEYGL | soluble |
| MDIPRIFTISESEHRIHNPFTEEKYATLGRVLRMKPGTRILDLGSGSGEMLCTWARDHGITGTGIDMSSLFTAQAKRRAEELGVSERVHFIHNDAAGYVANEKCDVAACVGATWIAGGFAGAEELLAQSLKPGGIMLIGEPYWRQLPATEEIAQACGVSSTSDFLTLPGLVGAFDDLGYDVVEMVLADQEGWDRYEAAKWLTMRRWLEANPDDDFAAEVRAELNIAPKRYVTYARECFGWGVFALIARLEHHHHHH | soluble |
| SKVALITGVTGQDGSYLAEFLLEKGYEVHGIKRRASSFNTERVDHIYQDPHTCNPKFHLHYGDLSDTSNLTRILREVQPDEVYNLGAMSHVAVSFESPEYTADVDAMGTLRLLEAIRFLGLEKKTRFYQASTSELYGLVQEIPQKETTPFYPRSPYAVAKLYAYWITVNYRESYGMYACNGILFNHESPRRGETFVTRKITRAIANIAQGLESCLYLGNMDSLRDWGHAKDYVKMQWMMLQQEQPEDFVIATGVQYSVRQFVEMAAAQLGIKLRFEGTGVEEKGIVVSVTGHDAPGVKPGDVIIAVDPRYFRPAEVETLLGDPTKAHEKLGWKPEITLREMVSEMVANDLEAAKKHSLLKSHGYDVAIALES | soluble |
| MEYSNFFDDLKSNIIGQYEECKAYRILCESQGYNPSEHLRSEKDITNIPFLATTLFKKSANLFLSLLRVEPDKLDKWTLSSSTSGDPSMVGRRNSDLMQIRKFVLMDDKFYDSASEYNCVFYPEPKVMREYKSVRIMDKPTESYIGNLLGIFDFSENTTFLLKSCGEGFSVDMNSFEEFLKFNNERNNHLSLRGSTLLLYNAVLELKKQGKGPYNLGSRAIVHTGGGGWDGKKGNISIGTKIERYQFVEEISEFLGIPQKNFRDTYSFTENTFPMDGHYSEKLRSYLFHVPTWGRVIIRDVKTLEPLNKPGDRGLVQVLNAYGTSSFAGASILVDDIAEIVANDSCPECKHEGMTFKIVGRVKGSEAKGCGATLDVRGKQKLEHHHHHH | soluble |
| MLIEMWSPVFKKHGEIREPICFHHGLNVIMGMDLADNSIGKSSSLLAIDFIFGGNSYLKSIAVKKLGDHPIYFCFQFEKKFYFSRDTANPDIILVCDKSYSPTGETMDLGIFLNKLKKRYHLDSPELSFRLAMSGFFRIAGKSNQNTDFPLQVYSSQKSSESITTLIQLFNLYDNIARYKERLKDKSDQLTTFRNARRYAFISNLVGGKKQFEANVSEIKRLEYDLAHLQDTHQDKIDSDDI | not soluble |
| MGSDKIHHHHHHGQPSNDKKNVLPDWAFGGFERPQGANPVISPIENTKFYCPMTQDYVAWESNDTFNPAATLHDGKIVVLYRAEDKSGVGIGHRTSRLGYATSSDGIHFKREKTPVFYPDNDTQKKLEWPGGCEDPRIAVTAEGLYVMTYTQWNRHIPRLAIATSRNLKDWTKHGPAFAKAYDGKFFNLGCKSGSILTEVVNGKQVIKKIDGKYFMYWGEEHVFAATSEDLVNWTPYVNTDGSLRKLFSPRDGHFDSQLTECGPPAIYTPKGIVLLYNGKNSASRGDKRYTANVYAAGQALFDANDPTRFITRLDEPFFRPMDSFEKSGQYVDGTVFIEGMVYYKDKWYLYYGCADSKVGMAIYNPKKPAAADPLP | not soluble |
| MPNNETEASMRNTLFPTLKWSLLVLMTSLLTACGFHLRGDYDIPQELSRMSLTSYDQYSTFTRMVHRQLRLNKIDLQAPAEDLPNLHLLSESTGERTLSLYQNTRAAEIELTFVASYRVTVPELGSRTFTTSVTRSYLDNPLTALAKSVERDMIEDEMRKLAASQIVRQMARLKADFARKTLDDESIEGKGITDYRVDTQEVANPVSTEGSSELEHHHHHH | soluble |
| MSDVAETVVAQEPEVVEPVEEKPTETGSDDVVVIDEKTSEQNGEKTEETQAEATEEKNETEAEEADKDKAVENGEAKDTNGNDRKRVSSAHEEAPVADAEEDAPLTKKSKVEDEVDVAASGDAPAVAAE | soluble |
| MSLQWKPAGDKIRTFWAEKVDVNNVLPEYPRPIMERSDWQNLNGLWNYAVLPLGQSAPTTFDGKILVPFAIESSLSGVGKTLGMEKELWYQRAFNIPSSWRGKRVLLHFGAVDWKTEVWVNNIKVGEHTGGFTPFTFDVTEALEKSTNTLTVKVWDPTDKGFQPRGKQVSNPRGIWYTPVSGIWQTVWLEPVSEHYIAGIKTTPDIDTNKIKVKVETDSNRQSDRLEVKVFDGKHLVAMGTSINGLPVEIPMPADAKLWSPDSPFLYQMEVSLISAGKLVDQIKSYVAMRKYSIKRDEHGIVRLQLNNKDLFQFGPLDQGWWPDGLYTAPTDEALRYDIEKTKDFGFNMIRKHIKVEPARWYTYCDQIGLIVWQDMPSGDKSPEWQNRKYFEGTELTRSAESEETYRKEWKEVIDCLYSYPCIGTWVPFNEAWGQFKTQEIAEWTKQYDPSRLVNPASGGNHYTCGDMLDLHHYPGPEMFLYDAQRATVLGEYGGIGLVLKDHLWEPNRNWGYIQFNTSAEATAEYLKYAGILKDMISRGFSAAVYTQTTDVEVEVNGLMTYDRKVIKLDESKLKKMNTEICNSLKEGHHHHHH | soluble |
| MKKLFFIMAMSVCAFTAQAQTTSGIRVGLNMTSATGKYNDLMADQDYNNKSYMGYSIHYFIDVPVIGNFSIQPAVGLSMKGITYEYDKFTTKKSHRLDLDSYKKYDVTESRGTSVTQKHNLGYLDVPILFAYALPLSESFRVQLGVGPYFSYGLFGKFKYESDKYLTVSPDKYGENKHTITKDDYPSFGKNDDADDPKGNINRFDWGIAVQGSIYWKRLFLNVAYQKGLKSANITDEKNEGKDKLALSNLSLGLGFIF | not soluble |
| MSKLQGKKITPMPISAGITVVDLINEYFTAYNSARLREACKLLSQDIFQAGVTVGVSLSGAMTPAGFGVSALAPLIRHGFIDWMISTGANLYHDVHYALGFELFAGSPFLDDVKLREEGTIRIYDIIFGYDVLLETDAFIRKVLQAEPFQKRMGTAEFHYLLGKYVREVEKQLGVQHSCLLATAYEYGVPIYTSSPGDSSIGMNVAALALEGSRLVLDPAIDVNETSAIAYGARETDGKSAAVILGGGSPKNFLLQTQPQIHEVLGLEERGHNFFVQFTDARPDTGGLSGATPAEAVSWGKIDPDELPSTIVCYTDSTIAIPLVTAYVLNQCQARPVKRLYDRREALLETLQKDYLAAKDKPVVKEEGTEEVPSYRCGTPIKR | not soluble |
| KLKPYNSEKILKYAEEVKSLYEKQSEENQEAYLQSIAKLGYEIYIVDDQKNGKRIGNAFRKTSISDDTVHKVLQGETFNGVSTYPTRLFITGFFDNELINSVGVPVKHGDKQYALFIRPDIQNQFGEMR | not soluble |
| KTAFTAEVLAQSFSGEVQKLSSLVLPAEVIIAQSSIPGEGLGIFSKTWIKAGTEMGPFTGRVIAPEHVDICKNNNLMWEVFNEDGTVRYFIDASQEDHRSWMTYIKCARNEQEQNLEVVQIGTSIFYKAIEMIPPDQELLVWYGNSHNTFLGIPGVPGLEEDQKKNKHED | soluble |
